# Results reported in patent US20190183138A1, “MILK COAGULANT AND METHOD FOR PRODUCING CHEESE” (CHINA AGRICULTURAL UNIVERSITY, priority 2017, published 2019).
# B1: papain (protein, UniProt P00784 134-345, looked up)
# Papain: IPEYVDWRQKGAVTPVKNQGSCGSCWAFSAVVTIEGIIKIRTGNLNEYSEQELLDCDRRSYGCNGGYPWSALQLVAQYGIHYRNTYPYEGVQRYCRSREKGPYAAKTDGVRQVQPYNEGALLYSIANQPVSVVLEAAGKDFQLYRGGIFVGPCGNKVDHAVAAVGYGPNYILIKNSWGTGWGENGYIRIKRGTGNSYGVCGLYTSSFYPVKN
# notes: cysteine protease from Sigma-Aldrich used as comparison
# Test system: 12% skim milk
# Assay: Milk clotting activity (MCA) assay, curd formation time
# Format: biochemical
# Conditions: 12% skim milk in 10 mM CaCl2, pH 6.5, 37° C.; FIG. 5
# Description: The MCA of the C. otophyllum proteases was determined using a modified method of He et al. (2011). One milliliter of substrate (12% skim milk in 10 mM CaCl2, pH 6.5) was incubated under 37° C. for 5 min, then 0.1 mL of the protease extracted solution was added. The time needed for curd formation was recorded and the MCA was expressed in Soxhlet units (SU). One SU of MCA was defined as the amount of the protease extracted solution required to clot 1 mL of substrate within 40 min at 37° C.
# where V stands for the volume of the substrate (mL); v stands for the volume of the protease extract; and t stands for the milk-clotting time (s).
# The C. otophyllum proteases were extracted as described by Huang et al. (2011) with some modifications. The C. otophyllum leaves were cut into pieces, mixed with a buffer at different solid-liquid ratios (i.e. ratio of mass to volume) for extraction, and then left for 2 h under 4° C., thus obtaining an extracted solution. After successive filtration through 4 layers of cheesecloth and a 0.22-μm membrane, the filtrate was concentrated by ultrafiltration with a 10-kDa molecular weight cut-off membrane at 8000 × g for 40 minutes at 4° C., with the retentate obtained as the concentrated solution of C. otophyllum proteases, which was assayed for protein concentration following the method of Bradford (1976) and curd formation time for 12% (w/v) skim milk.
molecule,measurement,value
B1,MCA (milk-clotting activity),100.2 SU/mg
